US11230581B2, “Peptides and combination of peptides for use in immunotherapy against ovarian cancer and other cancers” (Immatics Biotechnologies GmbH, priority 2015, dated 2022)

target: HLA-A*02:01 (Homo sapiens, UniProt P04439, D140Y/D185E/D98H/E176V/E277Q/G131W/G231S/I119V/I121R/I166T/I218V/L300P/L318F/N151K/N90K/P208A/P217A/Q86G/Q94H/R138H/R169H/T345S); test: MHC binding assay (UV-ligand exchange, β2m ELISA, peptide exchange yield); settings: binding of HLA-class I restricted peptides to HLA-A*02:01, UV-ligand exchange
Description: Candidate peptides for T cell based therapies according to the present invention were further tested for their MHC binding capacity (affinity). The individual peptide-MHC complexes were produced by UV-ligand exchange, where a UV-sensitive peptide is cleaved upon UV-irradiation, and exchanged with the peptide of interest as analyzed. Only peptide candidates that can effectively bind and stabilize the peptide-receptive MHC molecules prevent dissociation of the MHC complexes. To determine the yield of the exchange reaction, an ELISA was performed based on the detection of the light chain (β2m) of stabilized MHC complexes. The assay was performed as generally described in Rodenko et al. (Rodenko et al., 2006).
96 well MAXISorp plates (NUNC) were coated over night with 2 ug/ml streptavidin in PBS at room temperature, washed 4× and blocked for 1h at 37° C. in 2% BSA containing blocking buffer. […] Peptide-MHC monomers of the UV-exchange reaction were diluted 100 fold in blocking buffer. Samples were incubated for 1 h at 37° C., washed four times, incubated with 2 ug/ml HRP conjugated anti-β2m for 1h at 37° C., washed again and detected with TMB solution that is stopped with […]. Absorption was measured at 450 nm. Candidate peptides that show a high exchange yield (preferably higher than 50%, most preferred higher than 75%) are generally preferred for a generation and production of antibodies or fragments thereof, and/or T cell receptors or fragments thereof, as they show sufficient avidity to the MHC molecules and prevent dissociation of the MHC complexes.

Row | Substance | Peptide exchange (MHC class I binding score, peptide exchange yield)
1 | 162 (YQQAQVPSV; listed as Homo sapiens) [compound 162] | “+++” (≥50 = +++)
2 | 39 (SVAPNLPAV; listed as Homo sapiens) [compound 39] | “+++” (≥50 = +++)
3 | 226 (MLYVVPIYL; listed as Homo sapiens) [compound 226] | “++” (≥20% = ++)
4 | 139 (SVMEVNSGIYRV; listed as Homo sapiens) [compound 139] | “+++” (≥50 = +++)
5 | 120 (ALLGIPLTLV; listed as Homo sapiens) [compound 120] | “+++” (≥50 = +++)
6 | 114 (SLVGEPILQNV; listed as Homo sapiens) [compound 114] | “++” (≥20% = ++)
7 | 239 (AAFAGKLLSV; listed as Homo sapiens) [compound 239] | “+++” (≥50 = +++)
8 | 184 (YLMDINGKMWL; listed as Homo sapiens) [compound 184] | “+++” (≥50 = +++)
9 | 318 (GLINTGVLSV; listed as Homo sapiens) [compound 318] | “++” (≥20% = ++)
10 | 310 (FLVDTPLARA; listed as Homo sapiens) [compound 310] | “++++” (≥75% = ++++)
11 | 47 (ILLSVPLLVV; listed as Homo sapiens) [compound 47] | “++” (≥20% = ++)
12 | 163 (ALDEMGDLLQL; listed as Homo sapiens) [compound 163] | “+++” (≥50 = +++)
13 | 52 (FLLAHGLGFLL; listed as Homo sapiens) [compound 52] | “++++” (≥75% = ++++)
14 | 307 (ALPVSLPQI; listed as Homo sapiens) [compound 307] | “+++” (≥50 = +++)
15 | 97 (SLINGSFLV; listed as Homo sapiens) [compound 97] | “+++” (≥50 = +++)
16 | 299 (YLLETSGNL; listed as Homo sapiens) [compound 299] | “+++” (≥50 = +++)
17 | 264 (SLQEQLHSV; listed as Homo sapiens) [compound 264] | “+++” (≥50 = +++)
18 | 35 (KINDTIYEV; listed as Homo sapiens) [compound 35] | “+++” (≥50 = +++)
19 | 176 (YLMEGSYNKVFL; listed as Homo sapiens) [compound 176] | “++” (≥20% = ++)
20 | 151 (KILQQLVTL; listed as Homo sapiens) [compound 151] | “+++” (≥50 = +++)
21 | 200 (LLFGSVQEV; listed as Homo sapiens) [compound 200] | “+++” (≥50 = +++)
22 | 132 (LLVEQPPLAGV; listed as Homo sapiens) [compound 132] | “+++” (≥50 = +++)
23 | 274 (SLLFSLFEA; listed as Homo sapiens) [compound 274] | “++” (≥20% = ++)
24 | 3 (SLASKLTTL; listed as Homo sapiens) [compound 3] | “++++” (≥75% = ++++)
25 | 190 (FLSSLTETI; listed as Homo sapiens) [compound 190] | “+++” (≥50 = +++)

Next, values leading:

Row | Peptide exchange (MHC class I binding score, peptide exchange yield) | Substance
26 | “++” (≥20% = ++) | 428 (KLGHTDILVGV; listed as Homo sapiens) [compound 428]
27 | “++++” (≥75% = ++++) | 553 (SLLNQDLHWSL; listed as Homo sapiens) [compound 553]
28 | “++++” (≥75% = ++++) | 321 (GLFEDVTQPGILL; listed as Homo sapiens) [compound 321]
29 | “+++” (≥50 = +++) | 597 (KLLEGQVIQL; listed as Homo sapiens) [compound 597]
30 | “++” (≥20% = ++) | 373 (SLLEDKGLAEV; listed as Homo sapiens) [compound 373]
31 | “++++” (≥75% = ++++) | 358 (ALDEYTSEL; listed as Homo sapiens) [compound 358]
32 | “+++” (≥50 = +++) | 448 (NLLETKLQL; listed as Homo sapiens) [compound 448]
33 | “+++” (≥50 = +++) | 554 (LLMPSSEDLLL; listed as Homo sapiens) [compound 554]
34 | “+++” (≥50 = +++) | 357 (SMHDLVLQV; listed as Homo sapiens) [compound 357]
35 | “++” (≥20% = ++) | 403 (KLYDRILRV; listed as Homo sapiens) [compound 403]
36 | “++++” (≥75% = ++++) | 552 (GLLDLPFRVGV; listed as Homo sapiens) [compound 552]
37 | “+++” (≥50 = +++) | 502 (RLLAQVPGL; listed as Homo sapiens) [compound 502]
38 | “+++” (≥50 = +++) | 555 (YVLEGLKSV; listed as Homo sapiens) [compound 555]
39 | “++++” (≥75% = ++++) | 602 (YLLEQIKLIEV; listed as Homo sapiens) [compound 602]
40 | “+++” (≥50 = +++) | 515 (LLQELVLFL; listed as Homo sapiens) [compound 515]
41 | “++” (≥20% = ++) | 405 (ALYDVFLEV; listed as Homo sapiens) [compound 405]

Row | Peptide exchange (MHC class I binding score, peptide exchange yield) | Substance
42 | “+++” (≥50 = +++) | 595 (VLLSIYPRV; listed as Homo sapiens) [compound 595]
43 | “++++” (≥75% = ++++) | 438 (KLLPLAGLYL; listed as Homo sapiens) [compound 438]
44 | “+++” (≥50 = +++) | 484 (SLIEKVTQL; listed as Homo sapiens) [compound 484]
45 | “++++” (≥75% = ++++) | 387 (ALFQATAEV; listed as Homo sapiens) [compound 387]
46 | “+++” (≥50 = +++) | 426 (RLADKSVLV; listed as Homo sapiens) [compound 426]
47 | “++++” (≥75% = ++++) | 460 (AMLEKNYKL; listed as Homo sapiens) [compound 460]
48 | “++” (≥20% = ++) | 523 (YQIPRTFTL; listed as Homo sapiens) [compound 523]
49 | “+++” (≥50 = +++) | 547 (TLDITPHTV; listed as Homo sapiens) [compound 547]
50 | “+++” (≥50 = +++) | 444 (GLLRDEALAEV; listed as Homo sapiens) [compound 444]
51 | “+++” (≥50 = +++) | 575 (YLISQVEGHQV; listed as Homo sapiens) [compound 575]
52 | “++” (≥20% = ++) | 516 (AVGPASILKEV; listed as Homo sapiens) [compound 516]
53 | “+++” (≥50 = +++) | 635 (SLDSTLHAV; listed as Homo sapiens) [compound 635]
54 | “+++” (≥50 = +++) | 457 (SLLPGNLVEKV; listed as Homo sapiens) [compound 457]
55 | “++” (≥20% = ++) | 494 (ALQPEPIKV; listed as Homo sapiens) [compound 494]
56 | “+++” (≥50 = +++) | 582 (TLCDVILMV; listed as Homo sapiens) [compound 582]
